Results published in the supplement of paper PMC9112550, “Optimization of the antimicrobial peptide Bac7 by deep mutational scanning” (BMC Biology, 2022).
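Note: peptides expressed intracellularly from a pBAD plasmid library in pooled LB shake-flask culture, induced with 0.3% L-arabinose, DNA abundance read by NGS, three biological replicates, DESeq2 with apeglm shrinkage.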

What follows are sequences tested on Escherichia coli TOP10 (assay: shrunken log2 fold change of peptide-encoding DNA abundance (4.5 h post-induction vs induction); higher = less antimicrobial activity (less host growth inhibition)). Details: time post-induction: 4.5 h; library: site-saturation at positions 5, 18, 19, 20.
With RRIRTRPPRLPRPRPRPIFWPRP the “shrunken log2 fold change” value was 0.85.
In the case of RRIRDRPPRLPRPRPRPGLPPRP, the “shrunken log2 fold change” value is reported as 0.245.
RRIRNRPPRLPRPRPRPDACPRP was tested, and the “shrunken log2 fold change” value was -0.0102.
With RRIRWRPPRLPRPRPRPRQYPRP the “shrunken log2 fold change” value was -0.534.
With RRIRERPPRLPRPRPRPVMLPRP the “shrunken log2 fold change” value was 0.055.
With RRIRFRPPRLPRPRPRPQQAPRP the “shrunken log2 fold change” value was 0.366.
With RRIRSRPPRLPRPRPRPHDDPRP the “shrunken log2 fold change” value was -0.114.
For RRIRCRPPRLPRPRPRPRNGPRP, the “shrunken log2 fold change” value was 0.124.
In the case of RRIRNRPPRLPRPRPRPKNMPRP, the “shrunken log2 fold change” value is reported as -0.189.
With RRIRPRPPRLPRPRPRPYFLPRP the “shrunken log2 fold change” value was -0.614.
For RRIRRRPPRLPRPRPRPCQSPRP, the “shrunken log2 fold change” value was 0.0448.
With RRIRQRPPRLPRPRPRPDMMPRP the “shrunken log2 fold change” value was 0.142.
With RRIRIRPPRLPRPRPRPQIDPRP the “shrunken log2 fold change” value was -2.56.
RRIRYRPPRLPRPRPRPPWLPRP was tested, and the “shrunken log2 fold change” value was 1.46.
With RRIRVRPPRLPRPRPRPNHLPRP the “shrunken log2 fold change” value was -0.694.
For RRIRLRPPRLPRPRPRPMAVPRP, the “shrunken log2 fold change” value was -0.0225.
With RRIRIRPPRLPRPRPRPQMCPRP the “shrunken log2 fold change” value was 0.0648.
With RRIRKRPPRLPRPRPRPCYVPRP the “shrunken log2 fold change” value was -0.69.
For RRIRKRPPRLPRPRPRPQMTPRP, the “shrunken log2 fold change” value was 0.0443.
With RRIRVRPPRLPRPRPRPFHEPRP the “shrunken log2 fold change” value was 0.324.
With RRIRWRPPRLPRPRPRPGQRPRP the “shrunken log2 fold change” value was 0.153.
For RRIRYRPPRLPRPRPRPGYLPRP, the “shrunken log2 fold change” value was -0.33.
With RRIRNRPPRLPRPRPRPDRHPRP the “shrunken log2 fold change” value was 0.0343.
For RRIRRRPPRLPRPRPRPRTQPRP, the “shrunken log2 fold change” value was 0.19.
For RRIRTRPPRLPRPRPRPWHAPRP, the “shrunken log2 fold change” value was 0.093.
In the case of RRIRQRPPRLPRPRPRPDNFPRP, the “shrunken log2 fold change” value is reported as 0.013.
In the case of RRIRRRPPRLPRPRPRPIWTPRP, the “shrunken log2 fold change” value is reported as 0.181.
RRIRNRPPRLPRPRPRPHSHPRP was tested, and the “shrunken log2 fold change” value was -0.472.
With RRIRIRPPRLPRPRPRPKLPPRP the “shrunken log2 fold change” value was 0.0199.
With RRIRPRPPRLPRPRPRPLDHPRP the “shrunken log2 fold change” value was -0.114.
RRIRMRPPRLPRPRPRPEHVPRP was tested, and the “shrunken log2 fold change” value was 0.0396.
With RRIRYRPPRLPRPRPRPWDLPRP the “shrunken log2 fold change” value was 0.0112.
RRIRYRPPRLPRPRPRPPLQPRP was tested, and the “shrunken log2 fold change” value was 0.187.
With RRIRKRPPRLPRPRPRPAEMPRP the “shrunken log2 fold change” value was -0.00753.
With RRIRKRPPRLPRPRPRPSVCPRP the “shrunken log2 fold change” value was -0.0364.
RRIRPRPPRLPRPRPRPGNSPRP was tested, and the “shrunken log2 fold change” value was 0.0886.
For RRIRCRPPRLPRPRPRPYGKPRP, the “shrunken log2 fold change” value was -0.307.
RRIRMRPPRLPRPRPRPNGWPRP was tested, and the “shrunken log2 fold change” value was 0.175.
RRIRCRPPRLPRPRPRPCVIPRP was tested, and the “shrunken log2 fold change” value was -0.334.
In the case of RRIRFRPPRLPRPRPRPISFPRP, the “shrunken log2 fold change” value is reported as -0.0661.
In the case of RRIRDRPPRLPRPRPRPFLTPRP, the “shrunken log2 fold change” value is reported as -0.0719.
RRIRFRPPRLPRPRPRPYRVPRP was tested, and the “shrunken log2 fold change” value was -0.702.
For RRIRERPPRLPRPRPRPYLQPRP, the “shrunken log2 fold change” value was -0.138.
RRIRLRPPRLPRPRPRPRWRPRP was tested, and the “shrunken log2 fold change” value was 0.463.
RRIRDRPPRLPRPRPRPGYNPRP was tested, and the “shrunken log2 fold change” value was -0.0937.
For RRIRKRPPRLPRPRPRPIMVPRP, the “shrunken log2 fold change” value was 0.248.
For RRIRNRPPRLPRPRPRPYGNPRP, the “shrunken log2 fold change” value was -0.287.
For RRIRCRPPRLPRPRPRPLDEPRP, the “shrunken log2 fold change” value was 0.151.
With RRIRPRPPRLPRPRPRPKNKPRP the “shrunken log2 fold change” value was -0.187.
RRIRDRPPRLPRPRPRPAPYPRP was tested, and the “shrunken log2 fold change” value was -0.352.
For RRIRARPPRLPRPRPRPCGLPRP, the “shrunken log2 fold change” value was -0.0341.
With RRIRIRPPRLPRPRPRPIFIPRP the “shrunken log2 fold change” value was -0.317.
In the case of RRIRCRPPRLPRPRPRPFKFPRP, the “shrunken log2 fold change” value is reported as -0.788.
RRIRDRPPRLPRPRPRPVATPRP was tested, and the “shrunken log2 fold change” value was 0.814.
For RRIRYRPPRLPRPRPRPRSQPRP, the “shrunken log2 fold change” value was 0.298.
In the case of RRIRARPPRLPRPRPRPISRPRP, the “shrunken log2 fold change” value is reported as 0.354.
RRIRKRPPRLPRPRPRPRQSPRP was tested, and the “shrunken log2 fold change” value was 0.0892.
In the case of RRIRGRPPRLPRPRPRPFIIPRP, the “shrunken log2 fold change” value is reported as 0.102.
In the case of RRIRGRPPRLPRPRPRPIVNPRP, the “shrunken log2 fold change” value is reported as 0.187.
For RRIRERPPRLPRPRPRPFEFPRP, the “shrunken log2 fold change” value was -0.629.
For RRIRMRPPRLPRPRPRPPYVPRP, the “shrunken log2 fold change” value was -0.0137.
For RRIRARPPRLPRPRPRPETRPRP, the “shrunken log2 fold change” value was 0.662.
With RRIRSRPPRLPRPRPRPVTFPRP the “shrunken log2 fold change” value was -0.21.
RRIRGRPPRLPRPRPRPPFDPRP was tested, and the “shrunken log2 fold change” value was 0.835.
RRIRNRPPRLPRPRPRPGEVPRP was tested, and the “shrunken log2 fold change” value was -0.121.
With RRIRNRPPRLPRPRPRPWMEPRP the “shrunken log2 fold change” value was -0.00208.
In the case of RRIRLRPPRLPRPRPRPTQLPRP, the “shrunken log2 fold change” value is reported as 0.221.
For RRIRSRPPRLPRPRPRPPGHPRP, the “shrunken log2 fold change” value was 0.167.
With RRIRQRPPRLPRPRPRPEETPRP the “shrunken log2 fold change” value was -0.0125.
With RRIRERPPRLPRPRPRPHMDPRP the “shrunken log2 fold change” value was -1.21.
With RRIRSRPPRLPRPRPRPRCTPRP the “shrunken log2 fold change” value was 0.0731.
For RRIRFRPPRLPRPRPRPDCVPRP, the “shrunken log2 fold change” value was -0.0904.
In the case of RRIRKRPPRLPRPRPRPFWSPRP, the “shrunken log2 fold change” value is reported as -0.00917.
RRIRIRPPRLPRPRPRPAMMPRP was tested, and the “shrunken log2 fold change” value was -0.105.
For RRIRFRPPRLPRPRPRPQPLPRP, the “shrunken log2 fold change” value was -0.0304.
